Measured values: article PMC9332396

Molecular target: His6-NbSWP12 recombinant protein (spore wall protein NbSWP12 of Nosema bombycis) (Nosema bombycis)
Assay: non-reducing SDS-PAGE with Western blot; purified His6-NbSWP12 in non-reducing loading buffer (no SDS, no β-mercaptoethanol, not heated), 12% gel, blot with NbSWP12 antiserum

His6-NbSWP12 recombinant protein (spore wall protein NbSWP12 of Nosema bombycis) (natural protein)
stoichiometry N: 2
